Data as given in patent US20190382474A1 (SURFACE ONCOLOGY, published 2019).
Numbering of substitutions follows the chain as printed. One block for each binder: values may come before it.

What was measured:
[1] = biological target: T1, recombinant human IL-27 (human, UniProt Q14213 21-229; Q8NEV9 29-243); test: SPR, hIL-27 on CM5 chip, bivalent analyte model
T1 construct: Bought from R&D Systems (Cat. 2526-IL); also called hIL-27; rhIL-27
T1 sequence 1: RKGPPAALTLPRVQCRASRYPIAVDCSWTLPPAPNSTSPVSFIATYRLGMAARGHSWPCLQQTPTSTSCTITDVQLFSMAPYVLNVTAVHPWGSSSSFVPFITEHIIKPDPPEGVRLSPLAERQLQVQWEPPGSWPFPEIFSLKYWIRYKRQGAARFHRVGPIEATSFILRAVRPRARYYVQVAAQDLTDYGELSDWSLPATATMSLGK
T1 sequence 2: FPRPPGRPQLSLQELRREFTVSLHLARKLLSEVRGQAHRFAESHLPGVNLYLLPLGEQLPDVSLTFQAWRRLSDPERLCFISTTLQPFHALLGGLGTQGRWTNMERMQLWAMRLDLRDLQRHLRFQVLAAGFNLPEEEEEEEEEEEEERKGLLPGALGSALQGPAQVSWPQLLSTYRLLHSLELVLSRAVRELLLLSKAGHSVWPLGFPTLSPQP
Procedure: (§1) The antibodies were further characterized by surface plasmon resonance (SPR). Kinetic experiments were performed on a Biacore T200 (GE Healthcare, Uppsala, Sweden). All experiments were run at 25° C. with HBS-P+ running buffer (pH 7.4) (GE Healthcare, Little Chalfont, UK) using hIL-27 (R&D Systems, Abingdon, UK). Human IL-27 (hIL-27) antigen was captured on a CM5 chip to ˜16 RU. Immobilization was carried out at a protein concentration of 1 μg/mL in 10 mM acetate buffer pH 5.0. A three point, three-fold dilution range from 3.3 nM to 30 nM of antibody diluted in HBS-P+ buffer without regeneration between each concentration was used. The association phase for the three injections of increasing concentrations of antibody was monitored for 75 seconds each time and a single dissociation phase was measured for 250 seconds following the last injection of antibody. Regeneration of the hIL-27 surface was conducted using a single injection of 2M MgCl₂ for 120 s. Multiple repeats (n=4) of the chimeric antibody were performed throughout the assay to check the stability of the surface and analyte over the kinetic cycles.
(§2) Both 1:1 binding and bivalent analyte models were used to analyze the data due to the bivalent nature of the antibody. The results from the 1:1 binding model analysis are summarized in Table 4 and results from the bivalent analyte model are summarized in Table 5.

[2] = biological target: T1, recombinant human IL-27; test: SPR, hIL-27 on CM5 chip, bivalent analyte model (ka1)
Procedure: as §1, §2

[3] = biological target: T1, recombinant human IL-27; test: SPR, hIL-27 on CM5 chip, bivalent analyte model (kd1)
Procedure: as §1, §2

[4] = biological target: T1, recombinant human IL-27; test: SPR (Biacore T200), hIL-27 on CM5 chip, single cycle, 1:1 model
Procedure: as §1, §2

[5] = biological target: T2, recombinant mouse IL-27 (mouse, UniProt O35228 19-228; Q8K3I6 29-234, limits assumed); test: column 'Affinity mIL-27 (M)'; method not given
T2 construct: also called rodent recombinant IL-27
T2 sequence (looked up) 1: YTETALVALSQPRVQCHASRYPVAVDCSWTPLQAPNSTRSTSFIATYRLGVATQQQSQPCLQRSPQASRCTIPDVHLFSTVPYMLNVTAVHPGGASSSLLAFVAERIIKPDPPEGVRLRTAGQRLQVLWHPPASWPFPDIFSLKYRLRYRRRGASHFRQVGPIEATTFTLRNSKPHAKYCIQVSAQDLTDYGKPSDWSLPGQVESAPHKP
T2 sequence (looked up) 2: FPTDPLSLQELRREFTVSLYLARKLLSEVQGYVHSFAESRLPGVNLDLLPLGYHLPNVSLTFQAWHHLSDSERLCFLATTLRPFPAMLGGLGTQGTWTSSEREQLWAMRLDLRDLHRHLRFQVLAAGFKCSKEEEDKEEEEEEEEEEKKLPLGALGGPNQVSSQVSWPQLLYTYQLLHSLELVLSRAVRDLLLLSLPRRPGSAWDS

[6] = biological target: T1, recombinant human IL-27; test: column 'Affinity hIL-27 (M)', property (i); method not given, paragraph 885 names SPR (BIACORE 2000)
[7] = biological target: T1, recombinant human IL-27; test: SPR (BIACORE 2000) as the paragraph says; values in FIG. 9

B1: Ab7.18 (antibody, human IgG1, kappa, V domains shown)
VH: EVQLVESGGGLVQPGGSLRLSCAASGFTFTSYSMSWVRQAPGKGLEWVAYISYDGGSAYYPDTVKGRFTISRDNSKNTLYLQMNSLRAEDTAVYYCARHGDYDDDDAMDYWGQGTLVTVSS
VL: DIQMTQSPSSLSASVGDRVTITCRASENIYSYLAWYQQKPGKAPKLLVYNAETLTEGVPSRFSGSGSGTDFTLTISSLQPEDFATYYCQHHYGTPLTFGQGTKLEIKR
notes: human IgG1/kappa
ka2 [1]: 0.053 1/RUs
kd2 [1]: 0.11 s⁻¹
kon [2]: 570000 M⁻¹ s⁻¹
koff [3]: 0.0028 s⁻¹
Kd [4]: 1.5 nM
Relative KD to Ab7.1 [4]: 1.4
koff [4]: 0.0019 s⁻¹
kon [4]: 1.3e+06 M⁻¹ s⁻¹

B2: Ab7.20 (antibody, human IgG1, kappa, V domains shown)
VH: B1 VH with A49S
VL: B1 VL with P40Q, T85N, E105D
notes: human IgG1/kappa
ka2 [1]: 0.036 1/RUs
kd2 [1]: 0.086 s⁻¹
kon [2]: 620000 M⁻¹ s⁻¹
koff [3]: 0.0025 s⁻¹
Kd [4]: 1.4 nM
Relative KD to Ab7.1 [4]: 1.4
koff [4]: 0.0018 s⁻¹
kon [4]: 1.3e+06 M⁻¹ s⁻¹

B3: Ab7.22 (antibody, human IgG1, kappa, V domains shown)
VH: B1 VH with A49S
VL: B1 VL
notes: human IgG1/kappa
ka2 [1]: 0.49 1/RUs
kd2 [1]: 1.11 s⁻¹
kon [2]: 580000 M⁻¹ s⁻¹
koff [3]: 0.0027 s⁻¹
Kd [4]: 1.5 nM
Relative KD to Ab7.1 [4]: 1.5
koff [4]: 0.0019 s⁻¹
kon [4]: 1.3e+06 M⁻¹ s⁻¹

B4: Ab7.21 (antibody, human IgG1, kappa, V domains shown)
VH: B1 VH with A49S
VL: B1 VL with T85N
notes: human IgG1/kappa
ka2 [1]: 0.043 1/RUs
kd2 [1]: 0.097 s⁻¹
kon [2]: 550000 M⁻¹ s⁻¹
koff [3]: 0.0027 s⁻¹
Kd [4]: 1.5 nM
Relative KD to Ab7.1 [4]: 1.5
koff [4]: 0.0019 s⁻¹
kon [4]: 1.2e+06 M⁻¹ s⁻¹

B7: SRF410 (antibody, V domains shown)
VH: QVQLVQSGAEVKKPGSSVKVSCKASGGTFSAYAISWVRQAPGQGLEWMGGIIPIFGTANYAQKFQGRVTITADESTSTAYMELSSLRSEDTAVYYCARSYYSSRWHYYYYMDVWGKGTTVTVSS
VL: DIQMTQSPSSVSASVGDRVTITCRASQGISSWLAWYQQKPGKAPKLLIYAASNLQSGVPSRFSGSGSGTDFTLTISSLQPEDFATYYCQQADDLPLTFGGGTKVEIK
notes: also called SRF410-A; SRF410-B
Kd [7]: ≤ 15 nM
Kd [5]: 5.81 nM
Kd [6]: 0.39 nM

Continued, values first:

Kd [5]: 80.5 nM
Kd [6]: 0.048 nM
B5: SRF536 (antibody, V domains shown)
VH: QVQLQQWGAGLLKPSETLSLTCAVYGGSFSEYYWAWIRQPPGKGLEWIGEIDEVGSTNYNPSLKSRVTISVDTSKNQFSLKLSSVTAADTAVYYCARLPMYYYDSSDLPMDVWGQGTTVTVSS
VL: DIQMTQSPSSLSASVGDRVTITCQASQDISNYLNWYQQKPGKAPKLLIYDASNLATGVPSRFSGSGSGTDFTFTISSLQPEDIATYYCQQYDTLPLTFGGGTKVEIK
notes: also called SRF536-A; SRF536-B

binding result [5]: no binding
B6: SRF557 (antibody, V domains shown)
VH: QVQLVQSGAEVKKPGSSVKVSCKASGGTFSSYAISWVRQAPGQGLEWMGGIIPIFGTANYAQKFQGRVTITADESTSTAYMELSSLRSEDTAVYYCARLGGRGYADEGWYFDLWGRGTLVTVSS
VL: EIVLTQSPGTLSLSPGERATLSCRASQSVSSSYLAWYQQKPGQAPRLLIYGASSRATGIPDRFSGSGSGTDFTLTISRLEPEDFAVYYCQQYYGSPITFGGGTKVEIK
notes: also called SRF557-A; SRF557-B

Kd [7]: ≤ 15 nM
Kd [5]: 0.546 nM
Kd [6]: 0.43 nM
B8: SRF411 (antibody, V domains shown)
VH: B7 VH with S30E, A31S, A33T, I52A, N59H
VL: B7 VL
notes: also called SRF411-A; SRF411-B
